Our source for the Kd and IC50 values is patent US20050032245A1 (Harvard, published 2005).

In general, Kd refers to the concentration at which binding is half-saturated. A lower Kd goes with a tighter complex. Usually IC50 stands for the point on the concentration scale where inhibition reaches its midpoint.

Oregon Green 514 = pentafluorofluorescein derivative

Assay [1] concerns the target T1, MBP-UL42Δ340 (truncated UL42 processivity subunit of HSV DNA polymerase as maltose binding protein fusion) (herpes simplex virus, UniProt P10226 1-339, N-terminal MBP fusion, not carried in the letters).
T1 construct: Expressed in E. coli BL21(de3)pLysS and purified over amylose; also called wt UL42; HSV MBP-UL42
T1 sequence: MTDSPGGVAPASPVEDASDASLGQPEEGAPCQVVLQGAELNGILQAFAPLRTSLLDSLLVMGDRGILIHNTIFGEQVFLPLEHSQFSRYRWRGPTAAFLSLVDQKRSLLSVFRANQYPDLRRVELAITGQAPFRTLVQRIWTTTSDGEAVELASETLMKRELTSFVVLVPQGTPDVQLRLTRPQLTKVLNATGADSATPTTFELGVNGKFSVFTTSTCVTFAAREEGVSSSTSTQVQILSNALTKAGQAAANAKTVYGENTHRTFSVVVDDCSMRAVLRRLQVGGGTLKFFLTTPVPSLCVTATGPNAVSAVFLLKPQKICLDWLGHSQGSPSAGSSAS
The assay is described as follows: fluorescence polarization; MBP-UL42 titrated (1 to 50 µM) into 1 nM labeled peptide, Hofstee transformation. On the technique in general: In fluorescence polarisation assays a small probe gives low polarisation when free and higher when bound to something large.

The target of assay [2] is T1, MBP-UL42Δ340 (truncated UL42 …). Briefly: fluorescence polarization competition; peptide A displaces labeled peptide E from 7 µM UL42, Hill equation.

B1: Oregon Green 514-labeled peptide E (18 C-terminal amino acids of HSV Pol) (peptide)
peptide: {Oregon Green 514}-ATAEETRRMLHRAFDTLA-NH2
notes: also called Oregon Green-peptide E; labeled tracer
For B1, in assay [1], the Kd stood at 5 µM.

B2: peptide A (36-mer derived from the C-terminus of HSV Pol) (peptide)
peptide: DDVAARLRTAGFGAVGAGATAEETRRMLHRAFDTLA
notes: also called 36-mer peptide A; unlabeled peptide A
B2 came in with an IC50 in assay [2] of around 6 µM.
